Data: patent US20210388068A1 (UNIVERSITY OF MASSACHUSETTS, published 2021)

T1: N-terminal adhesin domain of CfaE fused to maltose-binding protein (MBP-CfaE-N) (enterotoxigenic Escherichia coli (ETEC), UniProt P25734 23-200)
T1 construct: domain: N-terminal adhesin domain; expressed in SHuffle T7 E. coli and purified on amylose resin; also called recombinant CfaE-N; wild-type CfaE; not shown: donor strand complement included as in Poole et al. 2007
T1 sequence (looked up): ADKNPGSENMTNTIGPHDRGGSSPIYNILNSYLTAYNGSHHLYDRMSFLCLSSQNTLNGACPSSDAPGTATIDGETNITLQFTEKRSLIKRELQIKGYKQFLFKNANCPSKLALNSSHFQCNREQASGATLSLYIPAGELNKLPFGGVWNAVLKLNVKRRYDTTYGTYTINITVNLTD


Assays:
[1] = molecular target: T1, N-terminal adhesin domain of CfaE fused …; assay: ELISA on plate-bound MBP-CfaE-N, anti-human IgG Fc-AP, OD405
Source text: FIG. 1A is a graph showing concentration-dependent binding of anti-CfaE antibodies as measured by ELISA. IgG bound to immobilized recombinant CfaE-N was detected with an anti-human IgG Fc-chain-specific alkaline phosphatase-conjugated antibody. Error bars represent the range in OD values observed in two independent experiments. The binding curves of the ten anti-CfaE antibodies are superimposed.
(§1) For binding activity of purified HuMAbs against CfaE, 96-well plates (Nunc) were coated overnight at 4° C. with 2 μg/mL of purified MBP-CfaE-N. Plates were blocked with 1% BSA+0.05% Tween 20 in PBS. Purified HuMabs were diluted in 1×PBS+0.1% Tween 20 and added to plates for 1 hour. Plates were stained with alkaline phosphatase-conjugated goat anti-human IgG Fcγ (Jackson ImmunoResearch Laboratories) (1:1,000) for 1 hour and developed using p-nitrophenyl phosphate (ThermoFisher Scientific).

[2] = molecular target: T1, N-terminal adhesin domain of CfaE fused …; assay: ELISA on plate-bound wild-type MBP-CfaE-N, OD405
Protocol: as §1
To define the antibody-binding epitope, putative antibody-antigen interaction models were established based on a previously resolved CfaE structure (PDB ID 2Hb0) and the HuMab antibody sequences using an antibody modeling program, BioLuminate (Schrodinger). This software suite develops models of antibody structures from their sequences, followed by computational docking to identify high-confidence antibody-antigen complex models. Based on these models, the software identified potential residues critical for binding interaction. The effect of these residues on the binding activity of the HuMAbs was analyzed by experimental alanine scanning followed by ELISA. […] The R67A mutation eliminated binding activity of HuMab 68-51 and 68-97 (FIG. 3B), while the Y183A mutation affected binding activity of HuMab 68-51, 68-97, 68-90, 67-102, and 840-53 (FIG. 3E). […] T91A mutation eliminated binding activity of HuMAb 840-53 and reduced binding activities of HuMAbs 68-51, 68-61, 840-53 and 68-48 (FIG. 3C). N127A mutation eliminated binding activity of HuMAb 68-61 and reduced binding of HuMAbs 68-48 and 68-6 (FIG. 3F). All mutations were found on the surface exposed loops of the N-terminal domain of the CfaE (FIG. 3G). No residues involved in the binding of MAb 68-75 to CfaE were identified.

[3] = molecular target: T2, MBP-CfaE-N Tyr183Ala mutant (enterotoxigenic Escherichia coli); assay: ELISA on plate-bound MBP-CfaE-N Tyr183Ala mutant, OD405
T2 construct: tag;N-terminal adhesin domain; not in the list MOLECULES; also called Y183A
Protocol: as §1
To define the antibody-binding epitope, putative antibody-antigen interaction models were established based on a previously resolved CfaE structure (PDB ID 2Hb0) and the HuMab antibody sequences using an antibody modeling program, BioLuminate (Schrodinger). This software suite develops models of antibody structures from their sequences, followed by computational docking to identify high-confidence antibody-antigen complex models. Based on these models, the software identified potential residues critical for binding interaction. The effect of these residues on the binding activity of the HuMAbs was analyzed by experimental alanine scanning followed by ELISA. […] The R67A mutation eliminated binding activity of HuMab 68-51 and 68-97 (FIG. 3B), while the Y183A mutation affected binding activity of HuMab 68-51, 68-97, 68-90, 67-102, and 840-53 (FIG. 3E). […]

Binder | EC50 (read off the curve) [1] [µg/mL] | EC50 (read off the curve) [2] [µg/mL] | EC50 (read off the curve) [3] [µg/mL]
anti-CfaE HuMab 68-48 (antibody, human IgG1, V domains shown, also called 068-48) VH: QVQLQQWGAGLLKPSETLSLTCAVYGGSFSGYSWSWIRQSPGKGLEWIGEIYHSGSTNYNPSLKSRVTISGDTSKNQFSLKLSSVTAADTAVYYCARENLQGYYYYGMDVWGQGTTVTVSS VL: AIQLTQSPSSLSASVGDRVTITCRASQGISSSLAWYQQKPGKAPKLLIYDASSLESGVPSRFSGSGSGTDFTLTISSLQPEDFATYYCQQFNSYPRTFGQGTKVEIK | ~0.03 | ~0.03 | ~0.01
anti-CfaE HuMab 68-61 (antibody, human IgG1, V domains shown, also called 068-61) VH: QVQLVQSGAEVKNPGSSVRVSCEASGGTFSSFAISWVRQAPGQGLEWMGRIIPILDIVKYAQRFQGRVTISADKSTSTAYMELSSLRSEGTAVYYCARDDIAGSDFDIWGQGTMVTVSS VL: DIQMTQSPSSLSASVGDRVTITCRASQGISSWLAWYQQKPEKAPKSLIYAASSLQSGVPSRFSGSGSGTDFTLTISSLQPEDFATYYCQQYTSYPYTFGQGTKLEIK | ~0.03 | ~0.03 | ~0.01
anti-CfaE HuMab 68-90 (antibody, human IgG1, V domains shown, also called 068-90) VH: QVQLQQWGAGLLKPSETLSLTCAVYGGSFSAYYWSWIRQPPGKGLEWIGEINHSGNTNYNPSLESRVTISVDTSKNQVSLKQSSVTAADTAVYYCARNWGPNAFDIWGRGTMVTVSS VL: DIQMTQSPSSVSASVGDRVTITCRASQDITSWLVWYQHKPGKAPKLLIYAASSLQSGVPSRFSGSGSGTDFTLTISSLQPEDFATYYCQQANIFPYTFGQGTKLEIK | ~0.03 | ~0.03 | 
